# Measurements: the Human Domainome abundance scans (Beltran et al. 2025)
# ± gives the uncertainty stated by the source.
# B1: V(D)J recombination-activating protein 2, residues 415 to 491; numbered along this chain, P55895 (parent)
# chain: YWITCCPTCDVDINTWVPFYSTELNKPAMIYCSHGDGHWVHAQCMDLAERTLIHLSAGSNKYYCNEHVEIARALHTP
# Variants of: B1
# Test: abundance fitness (aPCA) (normalised: wild type 0, dead -1); higher = more abundant; growth selection in yeast, the domain comes from the species named
# Conditions: Homo sapiens
row,Variant,abundance fitness
1,L24Q,-0.1 ± 0.18
2,L24F,-0.362 ± 0.3
3,L24C,0.027 ± 0.096
4,L24E,0.296 ± 0.38
5,L24V,-0.083 ± 0.12
6,L24M,-0.319 ± 0.21
7,L24A,-0.164 ± 0.15
8,L24W,-0.305 ± 0.14
9,E69D,0.052 ± 0.16
10,E69S,0.075 ± 0.11
11,E69R,0.035 ± 0.087
12,E69C,-0.355 ± 0.31
13,E69G,0 ± 0.1
14,T22R,-0.23 ± 0.11
15,T22K,0.052 ± 0.19
16,T22P,-0.281 ± 0.24
17,T22L,-0.179 ± 0.11
18,T22H,0.216 ± 0.46
19,T22C,-0.131 ± 0.34
20,T22V,-0.062 ± 0.13
21,T15G,0.055 ± 0.25
22,T15I,-0.104 ± 0.3
23,T15V,0.015 ± 0.34
24,C32H,-0.804 ± 0.39

row,Variant,abundance fitness
1,C32Y,-0.888 ± 0.34
2,C32A,-1.15 ± 0.21
3,C32P,-0.887 ± 0.16
4,S59N,-0.25 ± 0.21
5,S59V,-0.068 ± 0.068
6,S59R,-0.115 ± 0.059
7,S59E,0.002 ± 0.12
8,S59Y,-0.031 ± 0.12
9,N65R,0.079 ± 0.045
10,N65M,-0.12 ± 0.085
11,N65H,0.003 ± 0.16
12,N65C,-0.138 ± 0.1
13,N65A,0.001 ± 0.063
14,N65Y,-0.318 ± 0.36
15,A28Y,0.009 ± 0.32
16,A28Q,-0.104 ± 0.15
17,A28D,-0.318 ± 0.13
18,A28R,-0.214 ± 0.16
19,I13A,-0.149 ± 0.39
20,A73D,0.019 ± 0.12
21,A73W,-0.104 ± 0.086
22,A73S,-0.089 ± 0.14
23,A73V,-0.257 ± 0.071
24,A73P,0.027 ± 0.13

row,Variant,abundance fitness
1,H67F,-0.485 ± 0.1
2,H67G,-0.116 ± 0.044
3,H67L,-0.741 ± 0.043
4,H67N,-0.32 ± 0.096
5,P77Q,-0.011 ± 0.26
6,P77W,-0.237 ± 0.38
7,V40D,-0.555 ± 0.43
8,V40L,-0.043 ± 0.062
9,V40T,-0.427 ± 0.14
10,V40G,-0.744 ± 0.13
11,V40A,-0.288 ± 0.14
12,V40Q,-0.626 ± 0.24
13,L55W,-0.086 ± 0.053
14,L55R,-0.111 ± 0.036
15,L55M,-0.026 ± 0.066
16,L55V,-0.082 ± 0.071
17,N14R,-0.137 ± 0.2
18,N14Q,-0.332 ± 0.29
19,N14T,0.039 ± 0.16
20,N14M,-0.01 ± 0.32
21,N14P,-0.346 ± 0.49
22,S56A,0.078 ± 0.063
23,S56G,0.005 ± 0.037
24,S56D,-0.04 ± 0.092

row,Variant,abundance fitness
1,S56P,-0.074 ± 0.095
2,S56Y,0.052 ± 0.12
3,S56W,-0.07 ± 0.062
4,S56H,-0.038 ± 0.14
5,S56F,-0.052 ± 0.1
6,T4L,-0.049 ± 0.053
7,T4V,-0.128 ± 0.045
8,T4F,-0.101 ± 0.1
9,T4N,0.012 ± 0.091
10,T4C,-0.119 ± 0.1
11,T4M,-0.176 ± 0.08
12,I3T,-0.102 ± 0.08
13,I3P,-0.623 ± 0.078
14,I3Y,-0.202 ± 0.098
15,I3S,-0.118 ± 0.044
16,I3D,0.004 ± 0.071
17,P7S,0.075 ± 0.41
18,P7V,-0.006 ± 0.34
19,T76R,-0.091 ± 0.073
20,T76P,0.054 ± 0.11
21,T76M,-0.034 ± 0.089
22,T76N,-0.13 ± 0.13
23,T76L,-0.029 ± 0.078
24,T76W,-0.321 ± 0.11

row,Variant,abundance fitness
1,T76A,0.005 ± 0.076
2,T76H,-0.149 ± 0.2
3,G35W,-0.291 ± 0.14
4,G35E,0.068 ± 0.19
5,C64L,-1.07 ± 0.2
6,C64R,-0.945 ± 0.11
7,C64G,-0.935 ± 0.1
8,C64H,-0.962 ± 0.41
9,C64M,-1.06 ± 0.46
10,C64Y,-0.712 ± 0.28
11,S21F,-0.154 ± 0.14
12,S21C,0.015 ± 0.16
13,S21A,-0.187 ± 0.13
14,S21W,-0.443 ± 0.19
15,C6L,-0.284 ± 0.33
16,C6K,-0.28 ± 0.16
17,C6M,-0.393 ± 0.35
18,C6F,-0.304 ± 0.48
19,Y63E,-0.068 ± 0.077
20,Y63G,-0.377 ± 0.081
21,Y63A,-0.048 ± 0.061
22,Y63V,-0.051 ± 0.069
23,Y63H,-0.012 ± 0.14
24,A71W,-0.207 ± 0.18

row,Variant,abundance fitness
1,A71R,0.026 ± 0.052
2,A71Y,0.124 ± 0.15
3,A71V,-0.003 ± 0.051
4,A71M,-0.12 ± 0.1
5,A71K,-0.225 ± 0.1
6,A71N,-0.121 ± 0.1
7,G37K,-0.785 ± 0.37
8,G37S,-0.839 ± 0.21
9,H75F,-0.087 ± 0.1
10,H75L,-0.013 ± 0.049
11,H75Q,0.089 ± 0.11
12,H75V,-0.075 ± 0.08
13,H75S,-0.042 ± 0.081
14,H75P,-0.111 ± 0.063
15,D12L,-0.332 ± 0.11
16,D12T,-0.226 ± 0.24
17,D12R,0.107 ± 0.12
18,R50S,0.092 ± 0.06
19,R50N,-0.215 ± 0.14
20,R50V,0.069 ± 0.051
21,R50E,0.039 ± 0.076
22,R50D,-0.027 ± 0.096
23,R50F,-0.04 ± 0.081
24,R50G,0.036 ± 0.051

row,Variant,abundance fitness
1,C9T,-0.809 ± 0.38
2,C9G,-0.916 ± 0.5
3,C9Y,-0.739 ± 0.33
4,D36Q,0.055 ± 0.19
5,D36Y,-0.32 ± 0.41
6,D36S,-0.149 ± 0.14
7,E49A,-0.056 ± 0.046
8,E49V,-0.264 ± 0.049
9,E49I,-0.468 ± 0.15
10,E49L,-0.124 ± 0.044
11,E49W,-0.292 ± 0.071
12,E49M,-0.168 ± 0.067
13,E49Y,-0.127 ± 0.053
14,E49G,-0.295 ± 0.044
15,V68Q,-0.495 ± 0.48
16,V68Y,-0.335 ± 0.19
17,V68N,-0.219 ± 0.4
18,V68E,-0.439 ± 0.22
19,Y20E,-0.576 ± 0.3
20,Y20A,-0.539 ± 0.35
21,S33I,-0.031 ± 0.052
22,S33H,-0.116 ± 0.13
23,S33P,-0.126 ± 0.062
